Results taken from US20130171217A1, “ENZYMATIC PERACID GENERATION FOR USE IN SKIN CARE PRODUCTS” (E I DU PONT DE NEMOURS AND COMPANY, priority 2010, published 2013).
Where “and” joins values, the source holds several entries; their conditions need not be identical. Equal entries are not always repeated.

Tests used:
[1] = One-step procedure on hair tresses, tress tensile strength; conditions: for hair tensile strength: pH 6.6, 10 μg/mL enzyme
Source text: COM-TEN® Tensile Tester 95-VD (Com-Ten Industries, Pinellas Park, Fla.), fitted with a 100 lb. (˜45.4 kg) load-cell was used for tensile tests. In order to reduce sample slippage, 5 mm wide strips of industrial grade VELCRO® (Velcro USA, Manchester, N.H.) were attached to the inside edges of the clamps. Before testing the CALIBRATION was set to “off”, FORCE UNITS were set to “grams” and the distance between the clamps was adjusted to 3 cm. The test sample was soaked in water for 30 seconds. Excess moisture was removed by gentle absorption on a paper towel, leaving enough moisture in hair for it to qualify as being at 100% humidity level. The glued edges of the test sample were clamped at both upper and lower clamps in such a way that the VELCRO® strips held the hair just below the glue. Tester speed was set to ˜2.5 inches by adjusting the speed control knob. With the Force meter in RUN mode, TARE was set to ZERO to set the starting PEAK FORCE to 0. To start the test the DIRECTION toggle switch was pressed to UP position. At the conclusion of the test, when the sample failed, the DIRECTION switch was moved to STOP and the peak force was recorded. The hair was cut off along the edge of the clamps at both lower and upper clamps. The clamps were opened and the stubs were removed, dried in air and weighed. The difference in original sample weight and combined weights of the stubs was the weight of the hair undergoing tensile elongation, and this quantity was used to calculate the tensile strength.
Tensile Strength (N/mg hair)=Peak force (Newtons)/(Initial sample weight−weight of stubs)
The hair tresses in these examples were cut from the stock medium brown hair swatches that were custom made by International Hair Importers (Glendale, N.Y.). Each hair tress was glued at one end, and cut at 5 mm width and 4 cm long (excluding the glued portion), with 100+/−20 mg net hair weight. For each test condition, triplicates of hair tresses were used. In the one-step procedure, each hair tress was placed in a clean plastic weighing tray (VWR, Cat. #12577-053), then 1 mL of the perhydrolase HC1121 solution in a buffer was applied to the hair tress, and was rubbed into the hair tress with an applicator. Then calculated amount of triacetin and 30% H2O2 were applied onto each hair tress and rubbed into the hair tress which gave 200 mM triacetin and 100 mM H2O2. The hair tress sat in this reaction mixture for 30 min, before being washed thoroughly with tap water followed by paper towel dry. This completed a 30 min treatment cycle. The treatment cycle was repeated 16 times. Hair tress became lighter-colored and weakened during the treatment. After final rinse and air-drying, tensile strength tests as described in Example 25 were conducted on each hair tress to quantify hair weakening. In addition, L*, a*, b* color measurements were taken for each hair sample to quantify hair color loss, and L*, a*, b* color measurements were also taken for untreated hair as a reference for ΔE color difference calculations. ΔE was calculated in the standard way as ΔE=((L*−L*ref)^2+(a*−a*ref)^2+(b*−b*ref)^2)^0.5. […] At pH 6, when 30 μg/mL HC1121 was used which gave 0.3 μg/mg hair E/H ratio, the tensile strength of treated hair tress reduced to 1.9 N/mg hair, approaching 1.5 N/mg hair, the benchmark strength of hair treated with NAIR® cream for 5 min. At pH 7, when 30 μg/mL HC1121 was used, the tensile strength of treated hair tress was 0.3 N/mg hair, much less than the 1.5 N/mg hair benchmark. Therefore, proper concentration of enzyme at proper pH could weaken hair effectively. The measured hair color loss for treated hair tresses correlated well with the weakening of hair: the greater hair weakening, the greater hair color loss. […]

[2] = Two-step treatment of hair tresses, color loss ΔE; conditions: for Color loss ΔE: 0.75 M H2O2, 1 M TA; for ΔE of color loss: 2500 μg/mL
Protocol: After every fourth cycle the tresses were dried under air and color measurements were made using X-RITE® SP64 spectrophotometer (X-Rite, Grandville, Mich.) with 4 mm port. Color numbers were measured at D65/10° from reflectance, according to CIELAB76. Hair tresses (all 4 replicates) were placed under a card paper with punched out holes, making sure that the background was not visible. The port-hole of the spectrophotometer was centered on the hole to scan the hair sample underneath. The tress-bundle was turned over and placed under the card and an additional measurement was made. Average L*, a*, b* (color according to CIELAB76) values were recorded.
ΔE of color loss was calculated according to the following formula:
ΔE=√{square root over (((L1*−L0)̂2+(a1*−a0)̂2+(b1*−b0)̂2))}{square root over (((L1*−L0)̂2+(a1*−a0)̂2+(b1*−b0)̂2))}{square root over (((L1*−L0)̂2+(a1*−a0)̂2+(b1*−b0)̂2))}
L1*, a1* and b1* are L*, a* and b* values for a sample tress after treatment, L0*, a0* and b0* are L*, a* and b* values for untreated hair

[3] = 10 μg/mL HC1121, pH 6.6, 50 mM phosphate, 200 mM TA/100 mM H2O2, 24 hr/cycle, 8 cycles
[4] = 10 μg/mL HC1121, pH 6.6, 50 mM phosphate, 200 mM TA/200 mM H2O2, 24 hr/cycle, 8 cycles
[5] = 10 μg/mL HC1121, pH 6.6, 50 mM phosphate, 200 mM TA/300 mM H2O2, 24 hr/cycle, 8 cycles
[6] = 10 μg/mL HC1121, pH 6.6, 50 mM phosphate, 200 mM TA/500 mM H2O2, 24 hr/cycle, 8 cycles
[7] = 10 μg/mL HC1121, pH 6.6, 50 mM phosphate, 500 mM TA/500 mM H2O2, 24 hr/cycle, 8 cycles
[8] = one-step, 30 μg/mL enzyme, pH 6, 30 min × 16, listed as HC1121
[9] = one-step, 30 μg/mL enzyme, pH 7, 30 min × 16, listed as HC1121
[10] = one-step, pH 6.6, 50 mM buffer, 30 min/cycle X 16 cycles, SLES wash each cycle
[11] = one-step, pH 6.6, 50 mM buffer, 24 hr/cycle X 7 cycles, SLES wash each cycle
[12] = one-step, pH 6.6, 100 mM buffer, 30 min/cycle X 16 cycles, SLES wash each cycle

B1: C277S-HC263: C277S variant of Thermotoga maritima perhydrolase fused via a flexible linker to hair-binding domain HC263 (protein)
chain: MAFFDLPLEELKKYRPERYEEKDFDEFWEETLAESEKFPLDPVFERMESHLKTVEAYDVTFSGYRGQRIKGWLLVPKLEEEKLPCVVQYIGYNGGRGFPHDWLFWPSMGYICFVMDTRGQGSGWLKGDTPDYPEGPVDPQYPGFMTRGILDPRTYYYRRVFTDAVRAVEAAASFPQVDQERIVIAGGSQGGGIALAVSALSKKAKALLCDVPFLCHFRRAVQLVDTHPYAEITNFLKTHRDKEEIVFRTLSYFDGVNFAARAKIPALFSVGLMDNISPPSTVFAAYNYYAGPKEIRIYPYNNHEGGGSFQAVEQVKFLKKLFEKGGPGSGGAGSPGSAGGPGSPSAQSQLPDKHSGLHERAPQRYGPEPEPEPEPIPEPPKEAPVVIEKPKPKPKPKPKPPAHDHKNQKETHQRHAAGSGGGGSPHHHHHH
Q: Which “Strength N/mg Hair, average” value [1, 3] does the source give for B1 here?
A: The value was 1.19 N/mg Hair.

Q: And the “Strength N/mg Hair, replicate1” value [1, 3]?
A: Its value is 1.08 N/mg Hair.

Q: What about the “Strength N/mg Hair, replicate2” value [1, 3] of the same molecule?
A: The value was 1.40 N/mg Hair.

Q: And the “Strength N/mg Hair, replicate3” value [1, 3]?
A: The value was 1.09 N/mg Hair.

Q: And the “Strength N/mg Hair, average” value [1, 4]?
A: The value was 0.86 N/mg Hair.

Q: And the “Strength N/mg Hair, replicate3” value [1, 4]?
A: Its value is 0.99 N/mg Hair.

Q: And the “Strength N/mg Hair, average” value [1, 5]?
A: Its value is 0.55 N/mg Hair.

Q: And the “Strength N/mg Hair, replicate1” value [1, 5]?
A: Its value is 0.58 N/mg Hair.

Q: And the “Strength N/mg Hair, replicate2” value [1, 5]?
A: The value was 0.50 N/mg Hair.

Q: What about the “Strength N/mg Hair, replicate3” value [1, 5] of the same molecule?
A: The value was 0.57 N/mg Hair.

Q: What about the “Strength N/mg Hair, average” value [1, 6] of the same molecule?
A: Its value is 0.45 N/mg Hair.

Q: And the “Strength N/mg Hair, replicate1” value [1, 6]?
A: Its value is 0.39 N/mg Hair.

Q: What about the “Strength N/mg Hair, replicate2” value [1, 6] of the same molecule?
A: The value was 0.38 N/mg Hair.

Q: And the “Strength N/mg Hair, replicate3” value [1, 6]?
A: Its value is 0.58 N/mg Hair.

Q: What about the “Strength N/mg Hair, average” value [1, 7] of the same molecule?
A: Its value is 0.53 N/mg Hair.

Q: And the “Strength N/mg Hair, replicate1” value [1, 7]?
A: Its value is 0.53 N/mg Hair.

Q: And the “Strength N/mg Hair, replicate3” value [1, 7]?
A: The value was 0.49 N/mg Hair.

Q: And the “Strength, replicates 1-3” value ([1]; one-step, 5 μg/mL enzyme, pH 6, 200 mM triacetin, 100 mM H2O2, 30 min × 16, listed as HC1121)?
A: Its value is 2.89 N/mg Hair and 3.16 N/mg Hair and 3.03 N/mg Hair.

Q: And the “Strength, average” value ([1]; one-step, 5 μg/mL enzyme, pH 6, 30 min × 16)?
A: Its value is 3.03 N/mg Hair.

Q: What about the “Strength, average” value ([1]; one-step, 15 μg/mL enzyme, pH 6, 30 min × 16) of the same molecule?
A: Its value is 2.95 N/mg Hair.

Q: And the “Strength, replicates 1-3” value ([1]; one-step, 15 μg/mL enzyme, pH 6, 30 min × 16, listed as HC1121)?
A: Its value is 3.58 N/mg Hair and 2.54 N/mg Hair and 2.72 N/mg Hair.

Q: What about the “Strength, average” value [1, 8] of the same molecule?
A: Its value is 1.9 N/mg Hair and 1.86 N/mg Hair.

Q: What about the “Strength, replicates 1-3” value [1, 8] of the same molecule?
A: The value was 1.77 N/mg Hair and 1.86 N/mg Hair and 1.95 N/mg Hair.

Q: And the “Strength, average” value [1, 9]?
A: Its value is 0.3 N/mg Hair and 0.32 N/mg Hair.

Q: What about the “Strength, replicates 1-3” value [1, 9] of the same molecule?
A: The value was 0.31 N/mg Hair and 0.33 N/mg Hair (2×).

Q: What about the hair tensile strength ([1]; one-step, 200 mM triacetin, 100 mM H2O2, 8 cycles of 24 hr) of the same molecule?
A: The hair tensile strength was 1.2 N/mg hair.

Q: And the hair tensile strength ([1]; one-step, H2O2 over 300 mM, 8 cycles of 24 hr)?
A: The hair tensile strength was “about 0.5 N/mg hair”.

Q: And the “Strength N/mg Hair, average” value [1, 10]?
A: Its value is 0.65 N/mg Hair.

Q: And the “Strength N/mg Hair, replicate1” value [1, 10]?
A: The value was 0.59 N/mg Hair.

Q: And the “Strength N/mg Hair, replicate2” value [1, 10]?
A: Its value is 0.50 N/mg Hair.

Q: And the “Strength N/mg Hair, replicate3” value [1, 10]?
A: Its value is 0.85 N/mg Hair.

Q: What about the “Strength N/mg Hair, average” value [1, 11] of the same molecule?
A: Its value is 0.82 N/mg Hair.

Q: And the “Strength N/mg Hair, replicate1” value [1, 11]?
A: Its value is 0.86 N/mg Hair.

Q: What about the “Strength N/mg Hair, replicate2” value [1, 11] of the same molecule?
A: The value was 0.94 N/mg Hair.

Q: And the “Strength N/mg Hair, replicate3” value [1, 11]?
A: The value was 0.66 N/mg Hair.

Q: And the “Strength N/mg Hair, average” value [1, 12]?
A: Its value is 0.30 N/mg Hair.

Q: And the “Strength N/mg Hair, replicate1” value [1, 12]?
A: Its value is 0.22 N/mg Hair.

Q: What about the “Strength N/mg Hair, replicate2” value [1, 12] of the same molecule?
A: The value was 0.34 N/mg Hair.

Q: And the “Strength N/mg Hair, replicate3” value [1, 12]?
A: Its value is 0.35 N/mg Hair.

Q: And the “Color loss ΔE” value ([2]; 750 μg/mL (E/H 3), 40 min/cycle)?
A: Its value is 8.

Q: What about the “Color loss ΔE” value ([2]; 1500 μg/mL (E/H 5), 20 min/cycle) of the same molecule?
A: Its value is 7.

Q: And the “Color loss ΔE” value ([2]; 1750 μg/mL (E/H 7), 40 min/cycle)?
A: The value was 10.

Q: What about the “Color loss ΔE” value ([2]; 2500 μg/mL (E/H 10), 20 min/cycle) of the same molecule?
A: The value was 10.

Q: And the “Color loss ΔE” value ([2]; 2500 μg/mL (E/H 10), 40 min/cycle)?
A: Its value is 9.

Q: And the “ΔE of color loss” value ([2]; 4 cycles)?
A: The value was 4.

Q: And the “ΔE of color loss” value ([2]; 8 cycles)?
A: The value was 6.

Q: And the “ΔE of color loss” value ([2]; 12 cycles)?
A: The value was 8.

Q: What about the “ΔE of color loss” value ([2]; 16 cycles) of the same molecule?
A: The value was 11.
